From US20090053807 (published 2009)
Positions of bridges follow the written chain, without caps; N, C: chain ends. Non-standard residues stand in square brackets, D forms with d. No end group written: not given here. Hyp = O=C(O)[C@@H]1C[C@@H](O)CN1; Tic = O=C(O)[C@@H]1Cc2ccccc2CN1; Abu = CC[C@H](N)C(=O)O

biological target: T1, human insulin receptor (HIR) (human, UniProt P06213); assay: competition

Row | Kd [µM] | Binder
1 | > 20 | GSLDESFYDWFER [S396]

biological target: T1, human insulin receptor (HIR); assay: competition; remark: another data set of the same source

Row | Kd [µM] | Binder
2 | > 20 | GSLDESFYDWFER [S396]

biological target: T1, human insulin receptor (HIR); assay: competition; remark: another data set of the same source

Row | Binder | Kd [µM]
3 | AFYKWFAKK [S216] | > 20
4 | [Abu]CLEE[dW]GASL[Tic]QCSG (disulfide 2-13 (inferred)) [S266] | > 20
5 | AFYDWFAK [S180] | > 20
6 | GSLDESFYDWFE [S397] | > 20
7 | FHENFYDAFVRQVSKK [S222] | > 20
8 | GSLDESFYDWF [S398] | > 20
9 | FHENFYDWAVRQVSKK [S223] | > 20
10 | AFYDWFAKK [S167] | > 20
11 | FYDWFA [S183] | > 20
12 | AFYDWFA [S181] | > 20
13 | GFREGQRWYWFVAQVT [S278] | > 20
14 | Ac-FYDWF [S184] | > 20
15 | ESFYDWF [S403] | > 20
16 | ESFYDWFE [S402] | > 20
17 | FYDWFKK [S166] | > 20
18 | ESFYDWFER [S401] | > 20
19 | FYDWF [S165] | > 20

More lines, now with the values ahead:

Row | Kd [µM] | Binder
20 | > 20 | DPFYQGLWEWLRESGEE [S289]
21 | > 20 | AFYEWFAKK [S214]
22 | 3.7 | PLRESRNFYDWFVQQLE [S366]
23 | > 20 | WFGYAWLS [S317]
24 | 93 | HPTSKEIYAKLLK [S122]
25 | > 20 | HLSVGEELSWWVALLGQWAR [S282]
26 | > 20 | FHENAYDWFVRQVSKK [S219]
27 | > 20 | AFYGWFAKK [S215]
28 | > 20 | ALEEEWAWVQVRSIRSGLPL [S284]
29 | 2.4 | SDGEYNAIELLS [S118]
30 | > 20 | AFYDWF [S182]
31 | > 20 | GSLDESFYDWFER [S396]
32 | 8.3 | [dF][dH][dE][dN][dF][dY][dD][dW][dF][dV][dR][dQ][dV][dS][dK][dK] [S114]
33 | > 20 | APVSTEELRWGALLFGQWAG [S283]
34 | 5.9 | AHENFYDWFVRQVSKK [S113]
35 | > 20 | FHENFADWFVRQVSKK [S220]
36 | 7.5 | FHENFYDWFVAQVSKK [S108]
37 | 0.45 | RD[Hyp]FYDWEDD[dI] [S268]

biological target: mIR (human, UniProt P06213); assay: FP vs FITC-RP9

Row | IC50 [nM] | Binder
38 | 49 | GSLDESFYDWFERQLGKK [S371 (RP9)]
39 | > 100000 | GGTVWPGYEWLRNA [E8 (D120)]
40 | 770 | FHENFYDWFVQRVSKK [H2C (D117)]
